Drawing on paper PMC9303359, this text covers mean fluorescence intensity for one substance.

The target of this assay is human Toll-like receptor 2 expressed on HEK-Blue hTLR2 cells (human) (UniProt O60603). The experiment in a line: flow cytometry on cells. A general note: A flow cytometer gives signals particle by particle.
Chain of UniProt O60603 (O60603 21-784): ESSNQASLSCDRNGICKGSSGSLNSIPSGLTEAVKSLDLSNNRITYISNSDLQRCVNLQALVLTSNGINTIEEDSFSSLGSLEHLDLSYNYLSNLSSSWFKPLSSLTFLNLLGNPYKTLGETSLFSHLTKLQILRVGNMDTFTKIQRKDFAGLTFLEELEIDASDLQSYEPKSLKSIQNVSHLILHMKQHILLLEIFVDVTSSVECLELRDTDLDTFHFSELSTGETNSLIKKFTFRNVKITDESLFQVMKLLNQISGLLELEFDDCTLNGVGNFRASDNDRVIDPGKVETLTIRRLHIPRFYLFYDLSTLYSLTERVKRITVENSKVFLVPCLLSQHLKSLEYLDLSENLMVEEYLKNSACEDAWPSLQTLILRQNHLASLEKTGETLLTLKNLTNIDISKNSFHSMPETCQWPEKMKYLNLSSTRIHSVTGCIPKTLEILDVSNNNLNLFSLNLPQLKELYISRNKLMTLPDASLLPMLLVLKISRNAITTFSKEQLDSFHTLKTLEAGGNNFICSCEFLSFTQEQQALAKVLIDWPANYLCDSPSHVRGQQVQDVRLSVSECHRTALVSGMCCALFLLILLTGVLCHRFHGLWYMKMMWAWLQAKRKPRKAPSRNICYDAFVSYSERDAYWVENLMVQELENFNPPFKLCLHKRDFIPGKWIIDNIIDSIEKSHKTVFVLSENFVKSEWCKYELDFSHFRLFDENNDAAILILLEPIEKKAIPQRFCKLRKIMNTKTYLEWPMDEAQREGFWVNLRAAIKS

“fluorescently labelled recombinant ancillary pilin 1 (rAP1 labelled with Red Mega 485) (natural protein)”: the mean fluorescence intensity was determined as 1490.
